This assay concerns p27 phosphorylation at S83 and T187 in cardiomyocytes. Kind of assay: p27 phosphorylation at S83 and T187 in Ang II-treated cardiomyocytes (Western blot). Type of assay: cell-based, rat. The note with it: Ang II 4 h; lentiviruses 72 h; DMAT 20 μM pre-incubated 30 min; TAT-conjugated CK2-alpha-prime 2.5 μg/ml 1 h. As for the experimental part:
FIG. 2 is a series of graphs and blots showing Ang II triggers CK2-alpha-prime-dependent phosphorylation of p27 on S83 and T187 in cardiomyocytes. (A) p27 is a substrate of CK2-alpha-prime. […] In vitro kinase assays employing recombinant wt.p27 (1 μg) or phosphorylation site mutants of p27 as substrates were incubated with recombinant CK2-alpha-prime/beta (200 ng). Aliquots of the reaction mixtures were resolved on SDS-PAGE, electrotransferred to nitrocellulose membranes, and the amount of incorporated radioactive [^32P}-label into p27 was quantified with a PhosphorImager and ImageJ software. Individual membranes were probed with anti-CK2-alpha-prime, anti-p27 (input), or phosphorylation site specific antibodies to p27. […] Samples were resolved on SDS-PAGE, transferred to nitrocellulose-membranes, and the amount of incorporated radioactive label into histones was quantified with a PhosphorImager and ImageJ. The input amount of each CK2-alpha-prime and p27 protein used in the kinase reaction mixtures was monitored by immunoblot analysis employing anti-His. […] Biochemically fractionated extracts corresponding to 4×10^5 cells per lane were analyzed by immunoblotting employing antibodies as indicated on the left. […]
In general terms: Immunoblotting shows a protein as a band on a membrane.

B1: kd.CK2-α′: catalytically-inactive kinase-dead CK2-alpha-prime, point mutation K69M; TAT-conjugated protein in mice, lentivirally expressed in cardiomyocytes (protein)
chain: MPGPAAGSRARVYAEVNSLRSREYWDYEAHVPSWGNQDDYQLVRKLGRGKYSEVFEAINITNNERVVVMILKPVKKKKIKREVKILENLRGGTNIIKLIDTVKDPVSKTPALVFEYINNTDFKQLYQILTDFDIRFYMYELLKALDYCHSKGIMHRDVKPHNVMIDHQQKKLRLIDWGLAEFYHPAQEYNVRVASRYFKGPELLVDYQMYDYSLDMWSLGCMLASMIFRREPFFHGQDNYDQLVRIAKVLGTEELYGYLKKYHIDLDPHFNDILGQHSRKRWENFIHSENRHLVSPEALDLLDKLLRYDHQQRLTAKEAMEHPYFYPVVKEQSQPCADNAVLSSGLTAAR
modifications: left off: small tags and cut ends
notes: TAT-conjugated protein in mice, lentivirally expressed in cardiomyocytes
Take B1: the “S83/T187 phosphorylation of p27 in cardiomyocytes” value was “abolished”.
